The record followed here is FireProtDB (doi:10.1074/jbc.270.30.17712).

Several values for one entry are separate records, joined by “and”; a condition that tells them apart may be missing. Identical values can stand only once.

The conditions of the data set: Escherichia coli (strain K12); pH 7.8; 23 °C; Urea; Absorbance; Potassium phosphate 10 mM; transition: 3; reversible: yes; whole UniProt chain shown.

B1: Tryptophan synthase alpha chain wild type, P0A877 (protein)
chain: MERYESLFAQLKERKEGAFVPFVTLGDPGIEQSLKIIDTLIEAGADALELGIPFSDPLADGPTIQNATLRAFAAGVTPAQCFEMLALIRQKHPTIPIGLLMYANLVFNKGIDEFYAQCEKVGVDSVLVADVPVEESAPFRQAALRHNVAPIFICPPNADDDLLRQIASYGRGYTYLLSRAGVTGAENRAALPLNHLVAKLKEYNAAPPLQGFGISAPDQVKAAIDAGAAGAISGSAIVKIIEQHINEPEKMLAALKVFVQPMKAATRS
Turning to B1, the denaturant m value was 2.5 kcal/mol/M and 1.4 kcal/mol/M; the “denaturant midpoint (higher = more stable)” value was 2.51 M and 3.73 M; the unfolding free energy is 6.4 kcal/mol and 5.2 kcal/mol.
